Laboratory results reported in patent publication US20250042994A1 (HAINAN SIMCERE ZAIMING PHARMACEUTICAL, published 2025).

T1: human CD19 on CHO-K1-human CD19 cells (human, UniProt P15391 20-556)
T1 construct: whole, on cells; also called CHO-K1-human CD19-2C8
T1 sequence (looked up): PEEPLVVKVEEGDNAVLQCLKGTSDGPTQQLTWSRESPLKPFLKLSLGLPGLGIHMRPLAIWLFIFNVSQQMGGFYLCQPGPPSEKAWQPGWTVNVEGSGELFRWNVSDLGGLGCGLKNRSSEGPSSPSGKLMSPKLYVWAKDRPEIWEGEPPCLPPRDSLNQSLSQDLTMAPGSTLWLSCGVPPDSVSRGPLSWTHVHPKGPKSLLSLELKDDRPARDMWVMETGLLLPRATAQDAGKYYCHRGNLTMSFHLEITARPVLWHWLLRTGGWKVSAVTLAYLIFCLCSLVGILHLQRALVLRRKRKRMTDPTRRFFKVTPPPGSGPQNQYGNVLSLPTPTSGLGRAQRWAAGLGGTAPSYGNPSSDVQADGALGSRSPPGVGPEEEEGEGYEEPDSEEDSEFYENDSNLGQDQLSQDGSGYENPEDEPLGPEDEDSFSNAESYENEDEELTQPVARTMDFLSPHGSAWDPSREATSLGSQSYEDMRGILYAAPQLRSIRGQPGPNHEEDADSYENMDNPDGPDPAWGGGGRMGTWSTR

T2: human CD19 on Raji cells (human, UniProt P15391 20-556)
T2 construct: whole, on cells
T2 sequence (looked up): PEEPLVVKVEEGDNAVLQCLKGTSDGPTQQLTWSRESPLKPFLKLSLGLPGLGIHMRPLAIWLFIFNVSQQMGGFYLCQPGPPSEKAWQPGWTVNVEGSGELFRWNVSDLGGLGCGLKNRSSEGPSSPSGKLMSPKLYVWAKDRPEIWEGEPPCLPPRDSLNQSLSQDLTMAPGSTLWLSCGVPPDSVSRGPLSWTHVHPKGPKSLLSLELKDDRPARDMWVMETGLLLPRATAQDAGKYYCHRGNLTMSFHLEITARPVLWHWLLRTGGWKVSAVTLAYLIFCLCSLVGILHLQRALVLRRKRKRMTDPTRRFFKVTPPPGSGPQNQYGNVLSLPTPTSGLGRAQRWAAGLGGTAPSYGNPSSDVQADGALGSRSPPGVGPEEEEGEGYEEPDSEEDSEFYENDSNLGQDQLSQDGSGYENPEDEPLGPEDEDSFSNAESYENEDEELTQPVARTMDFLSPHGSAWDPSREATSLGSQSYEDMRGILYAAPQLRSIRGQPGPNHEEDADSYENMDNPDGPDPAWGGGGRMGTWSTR

T3: cynomolgus monkey CD19 on peripheral blood B cells (cynomolgus monkey (Macaca fascicularis), UniProt A0A2K5W8L9 20-557)
T3 construct: whole, on cells; also called cynomolgus monkey B cells
T3 sequence: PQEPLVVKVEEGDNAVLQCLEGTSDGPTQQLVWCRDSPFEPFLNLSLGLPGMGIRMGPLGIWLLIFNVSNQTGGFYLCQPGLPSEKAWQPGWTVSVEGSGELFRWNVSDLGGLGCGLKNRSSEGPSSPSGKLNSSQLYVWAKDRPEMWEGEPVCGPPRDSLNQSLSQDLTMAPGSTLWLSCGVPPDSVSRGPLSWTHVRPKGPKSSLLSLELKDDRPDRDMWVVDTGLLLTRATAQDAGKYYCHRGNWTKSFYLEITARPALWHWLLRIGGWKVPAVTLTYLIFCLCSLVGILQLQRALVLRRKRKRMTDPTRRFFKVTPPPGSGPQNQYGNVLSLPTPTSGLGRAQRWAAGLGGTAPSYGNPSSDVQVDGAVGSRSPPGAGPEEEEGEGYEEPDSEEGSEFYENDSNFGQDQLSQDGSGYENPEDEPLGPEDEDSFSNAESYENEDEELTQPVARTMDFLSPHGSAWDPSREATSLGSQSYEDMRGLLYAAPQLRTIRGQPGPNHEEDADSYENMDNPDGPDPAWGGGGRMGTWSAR


How the values were obtained:
[1] = target: T1, human CD19 on CHO-K1-human CD19 cells; experiment: FACS on CHO-K1-human CD19 cells
[2] = target: T4, monkey CD19 on HEK293T-monkey CD19 cells (monkey); experiment: FACS on HEK293T-monkey CD19 cells
T4 construct: whole, on cells
Outline: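 Cells blocked in PBS + 2% (w/w) BSA at 2×10⁶ cells/ml, then incubated with test antibody on ice for 2 h. After washes, binding read by flow cytometry as mean fluorescence intensity (MFI). EC50 from fitted MFI curves. Parental HEK293T cells run by the same method.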

human CD19 on Raji cells = target: T2, human CD19 on Raji cells; experiment: FACS on Raji cells
[3] = target: T3, cynomolgus monkey CD19 on peripheral …; experiment: FACS, cynomolgus PBMC, CD20+ B cells

| Binder | EC50 [1] | Maximum mean fluorescence intensity [1] | EC50 [2] | Maximum mean fluorescence intensity [2] | EC50 (human CD19 on Raji cells) | Maximum mean fluorescence intensity (human CD19 on Raji cells) | Proportion of chimeric antibody positive cells to B cells (%) at 1 nM [3] | Proportion of chimeric antibody positive cells to B cells (%) at 10 nM [3] | Proportion of chimeric antibody positive cells to B cells (%) at 100 nM [3] |
| --- | --- | --- | --- | --- | --- | --- | --- | --- | --- |
| F4.152.7 (antibody, human IgG1, V domains shown, human-murine chimeric antibody, human IgG1) VH: QVQLQQPGAELVKPGASVKLSCKASGYTFTSYWMHWVKQRPGQGLEWIGEIDPSDSYTNYNQKFKGKATLTADKSSSTAYMQLSGLTSEDSAVYHCARGGDYDGYYVMDYWGQGTSVTVSS VL: EIVLTQSPTTMAASPGEKITITCSASSSISSNYLHWYQQKPGFSPKLLIYRTSNLASGVPARFSGSGSGTSYSLTIGTMEADDVATYYCQQGSYIPRIFTFGSGTKLEIK | 0.78 nM | 58900 | – | 58 | 0.76 nM | 26000 | 2% | 2% | 3% |
| F4.49.11 (antibody, human IgG1, V domains shown, human-murine chimeric antibody, human IgG1) VH: DVQLRASGPGLVKPSQSLSLTCSVTGYSITSGYYWNWIRQFPGNKLEWMGCISYDGTNNYNPSLKNRISFTRDTSKNQFFLNLNSVTTEDSATYYCARRVYYRYDGVVDYWGQGTSVTVSS VL: ENVLTQSPAIMSASPGEKVTMTCSASSSVSYIHWYQQKSSTAPKLWIYDTSKLASGVPGRFSGSRSRNSYSLTISSMEAEDVATYYCFQGSGYPLTFGSGTKLEIK | 3.1 nM | 44200 | 3.08 nM | 73500 | 6.21 nM | 20300 | 67% | 96% | 98% |
| F4.96.6 (antibody, human IgG1, V domains shown, human-murine chimeric antibody, human IgG1) VH: EIQLQQSGPELVKPGASVKVSCKASGYAFSAYNIYWVKQSHGKSLEWIGYIDPYNSGTTYNQKFRGKATLTVDKSSNTAYMHLSSLTSEDSAVYYCTRDGDAMDYWGQGTSVTVSS VL: EILLTQSPAIIAASPGEKVTITCSASSGVIYMNWYQQKPGSSPKIWIYDVSTLASGVPARFSGSGSGTSFSFTINSMEAEDVATYYCQQRSSYPYTFGGGTKLEIK | 1.16 nM | 52000 | – | 73 | 0.74 nM | 25700 | 1% | 2% | 1% |
| F4.107.12 (antibody, human IgG1, V domains shown, human-murine chimeric antibody, human IgG1) VH: EVQLQQSGPELVKPGASVKMSCKASGYTFTSYVLHWVRQKPGQGLEWIGYFNPYNDGTEYNEKFKGKAILTSDKSSSTAYMELNSLTSEDSAVYYCVGGTYYYGSSYPFAYWGQGTLVTVST VL: DVVMTQISLSLPVSLGDQASISCRSSQSLIHSNGNTYLQWYLQKPGQSPKLLIYKVSNRLSGVPDRFSGSGSGTDFTLKISRVEAEDLGVYFCSQSTHVPYTFGGGTKLEIK | 0.77 nM | 59900 | 1.24 nM | 69500 | 0.6 nM | 26700 | 20% | 35% | 67% |

Binders with a lower EC50 [1], results first:

| EC50 [1] | Maximum mean fluorescence intensity [1] | EC50 [2] | Maximum mean fluorescence intensity [2] | EC50 (human CD19 on Raji cells) | Maximum mean fluorescence intensity (human CD19 on Raji cells) | Proportion of chimeric antibody positive cells to B cells (%) at 1 nM [3] | Proportion of chimeric antibody positive cells to B cells (%) at 10 nM [3] | Proportion of chimeric antibody positive cells to B cells (%) at 100 nM [3] | Binder |
| --- | --- | --- | --- | --- | --- | --- | --- | --- | --- |
| 0.51 nM | 44300 | 0.73 nM | 57000 | 1.52 nM | 36900 | 21% | 29% | 74% | F4.78.1 (antibody, human IgG1, V domains shown, human-murine chimeric antibody, human IgG1) VH: QVQIQQSGAELARPGASVKLSCKASGYTFTNYWMQWIKQRPGQGLEWIGAIYPGDGDTRYTQKFKGKATLTADKSSSTAYMQLSSLASEDSAVYYCAREEVWSPYGMDYWGQGTSVTVSS VL: QIVLTQSPAIMSASPGEKVTITCSASSSVSYMGWFQQKPGTSPKLWIYSTSNLASGVPARFSGSGSGTSYSLTISRMEAEDAATYYCQQRSIYPLTFGAGTKLELK |
| 0.34 nM | 26500 | 1.14 nM | 59600 | 1.89 nM | 32300 | 3% | 15% | 50% | F4.191.1 (antibody, human IgG1, V domains shown, human-murine chimeric antibody, human IgG1) VH: QVQLQQPGAELVRPGASVKLSCKASGYTFTSYWINWVKQRPGQGLEWIGNIHPSDSYTNYNQKFKDKATLTVDKSSSTAYMQFSSPTSEDSAVYYCTREDYYYGSNYDAMDYWGQGTSVTVSS VL: DIVMTQSHKFMSTSVGDRVNITCKASQDVGSSVAWYQQKPGQSPKLLIYWASTRHAGVPDRFTGSGSGADFTLTISNVQSEDLADYFCQQYSTYPLTFGAGTKLELK |
| 0.32 nM | 26000 | 1.18 nM | 66600 | 0.85 nM | 16600 | 97% | 98% | 99% | F4.82.11 (antibody, human IgG1, V domains shown, human-murine chimeric antibody, human IgG1) VH: QVTLKESGPGILQASQTLSLTCSFSGFSLSTFGIGVGWVRQPSGKGLEWLAHIWWNDNKFFNTTLKNRLTLSKDPSNNQVFLKIASVDTADTATYYCARSRSALITTGLYAMDYWGQGTSVTVSS VL: DIQMTQTPSSLSASLGDRVTISCRSSQDISNYVNWYQQKPDGTVKVLINYTSRLHSGVPSRFSGSGSGTDYSLTISNLEQEDIASYFCQQGFTLPYTFGGGTKLEIK |
| 0.48 nM | 52700 | 184 nM | 14300 | 0.55 nM | 29300 | 1% | 8% | 22% | F4.48.12 (antibody, human IgG1, V domains shown, human-murine chimeric antibody, human IgG1) VH: QMQLKESGPGLVAPSQSLSITCTVSGFSLTDYGVSWIRQPPGKGLEWLGVIWGSGSTFYNSALTSRLSISKDNSKSQVFLKMNSLQTADTAMYFCAKHHYYGGSFAMDYWGQGTSVTVSS VL: DIQMTQASSSLSASLGDRVTISCKTSQDISNYLNWYQQKPDGTFKLLIHYTSRLHSGVPSRFSGSGSGSDYSLTISNLEREDIATYFCQQGNSLPYTFGGGTKLEMK |
